Measured values from patent US20230220038A1, “BRI2 BRICHOS DOMAIN FOR DELIVERY OF PROTEINS INTO CNS NEURONS” (ALPHABETA AB, priority 2021, published 2023).

Legend:
[1] = test system: hippocampal slice preparations; test: Aβ42-induced neurotoxicity in hippocampal slice preparations
[2] = target: Aβ42 (Homo sapiens, UniProt P05067); test: Aβ42 oligomer generation; type: biochemical
[3] = test system: App^NL-G-F and App^NL-F mice; conditions: mouse, in vivo, iv
Protocol: After the end of 10-12 weeks of treatment, Bri2 BRICHOS amounts in the CNS were analysed.
Representative sections (A,D) were double stained with anti-Bri2 BRICHOS antibody (red/pink color) and 82E1 anti-Aβ antibody (green color) counterstained with hematoxylin Mayer (blue color) in rh Bri2 BRICHOS R221E or PBS treated App^NL-G-F and App^NL-F mice. Histograms represents mean intensity of Bri2 BRICHOS in hippocampus (B,E) and cortex (C,F) of App^NL-G-F (B,C) and App^NL-F (E,F) mice. Data are shown as mean±SEM (n=3-4 mice/group, 4 histological sections from each mouse analyzed). Unpaired parametric two-tailed t-test was used to calculate p-values. Scale bars represents 400 μm (upper four panels in A and D) and 100 μm (lower two panels in A and D). * p<0.05, ** p<0.01, *** p<0.001, **** p<0.0001.

[4] = test system: mice; conditions: mouse, in vivo
[5] = test system: mouse primary neurons; test: Uptake into primary neurons in culture, fluorescence microscopy; type: cell-based; conditions: low nanomolar concentrations in culture medium, 24-48 h
Protocol: The data in FIG. 11A indicate that the fusion protein rh NT-Bri2 BRICHOS is internalized in CNS cells and appears in intracellular vesicles. We studied the intracellular localization in more detail, using primary mouse neurons in culture and the recombinant fusion protein mCherry-Bri2 BRICHOS. Recombinant mCherry-Bri2 BRICHOS was added to the culture medium at low nanomolar concentrations, and after 24-48 h the neurons were immobilized and visualized under a fluorescence microscope.

Aβ42, sequence (P05067 672-713 limits assumed): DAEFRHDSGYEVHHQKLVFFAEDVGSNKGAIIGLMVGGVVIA

With “Bri2 BRICHOS R221E monomers: rh Bri2 BRICHOS mutated R221E so that the monomer is stabilised (SEQ ID NO: 13)” the “effect on Aβ42-induced neurotoxicity” value [1] was “alleviates Aβ42-induced neurotoxicity”, the “effect on Aβ42 oligomer generation” value [2] was “selectively reduces Aβ42 oligomer generation” and the “overall Bri2 BRICHOS staining (mean intensity, hippocampus and cortex) versus PBS” value [3] was “significant increase”. The BBB passage [4] was “passes the BBB in mice and shows a trend towards higher passage than the wildtype protein”.
In the case of “mCherry: control: ca 30 kDa fluorescent protein derived from sea anemones [reference compound]”, the “uptake into primary neurons” value [5] is reported as “not taken up to any detectable level”.
